In publication PMC2930322 (PLoS ONE, 2010):

Target: the molecule itself
Experiment: atomic force microscopy; assembled 1 h at 37°C in 25 mM Tris-HCl (pH 7.5) with NaCl (vimentin 0.1 mg/ml, 125 mM NaCl; K5/K14 0.1 mg/ml, 50-100 mM NaCl), adsorbed to mica, flushed with water, dried, imaged in air in acoustic mode

B1: Human K5/K14 heterodimers (complex)
chain 1: MSRQSSVSFRSGGSRSFSTASAITPSVSRTSFTSVSRSGGGGGGGFGRVSLAGACGVGGYGSRSLYNLGGSKRISISTSGGSFRNRFGAGAGGGYGFGGGAGSGFGFGGGAGGGFGLGGGAGFGGGFGGPGFPVCPPGGIQEVTVNQSLLTPLNLQIDPSIQRVRTEEREQIKTLNNKFASFIDKVRFLEQQNKVLDTKWTLLQEQGTKTVRQNLEPLFEQYINNLRRQLDSIVGERGRLDSELRNMQDLVEDFKNKYEDEINKRTTAENEFVMLKKDVDAAYMNKVELEAKVDALMDEINFMKMFFDAELSQMQTHVSDTSVVLSMDNNRNLDLDSIIAEVKAQYEEIANRSRTEAESWYQTKYEELQQTAGRHGDDLRNTKHEISEMNRMIQRLRAEIDNVKKQCANLQNAIADAEQRGELALKDARNKLAELEEALQKAKQDMARLLREYQELMNTKLALDVEIATYRKLLEGEECRLSGEGVGPVNISVVTSSVSSGYGSGSGYGGGLGGGLGGGLGGGLAGGSSGSYYSSSSGGVGLGGGLSVGGSGFSASSGRGLGVGFGSGGGSSSSVKFVSTTSSSRKSFKS
chain 2: MTTCSRQFTSSSSMKGSCGIGGGIGGGSSRISSVLAGGSCRAPSTYGGGLSVSSSRFSSGGACGLGGGYGGGFSSSSSSFGSGFGGGYGGGLGAGLGGGFGGGFAGGDGLLVGSEKVTMQNLNDRLASYLDKVRALEEANADLEVKIRDWYQRQRPAEIKDYSPYFKTIEDLRNKILTATVDNANVLLQIDNARLAADDFRTKYETELNLRMSVEADINGLRRVLDELTLARADLEMQIESLKEELAYLKKNHEEEMNALRGQVGGDVNVEMDAAPGVDLSRILNEMRDQYEKMAEKNRKDAEEWFFTKTEELNREVATNSELVQSGKSEISELRRTMQNLEIELQSQLSMKASLENSLEETKGRYCMQLAQIQEMIGSVEEQLAQLRCEMEQQNQEYKILLDVKTRLEQEIATYRRLLEGEDAHLSSSQFSSGSQSSRDVTSSSRQIRTKVMDVHDGKVVSTHEQVLRTKN
notes: keratin K5 (keratin, type II cytoskeletal 5), human; keratin K14 (keratin, type I cytoskeletal 14), human; Named only as a heterodimer; the two chains are never tested against each other or one by one; also called keratin K5/K14; K5/K14 subunits; source: expressed and purified as described [17]; stored in 6 M urea, dialysed into 2 mM Tris-HCl (pH 9), 1 mM DTT
- binding result: binds
